In patent US20070269898A1, “Amino Acid Sequences Essential to Neuron Specific Gene Expression” (YOKOHAMA CITY UNIVERSITY, priority 2004, published 2007):
Blank lines part the entries; values can stand above or below the molecule they belong to. Where no end group is shown, it is not given here.

Key:
[1] = Solubility of peptide; format: physicochemical; details: before adding KKKK to the C-terminus
[2] = target: T1, mSin3B PAH1 domain (Mus musculus, UniProt Q62141); assay: 1H-15N HSQC interaction / titration experiment with 15N-labeled mSin3B PAH1 domain; format: binding; details: for Spectrum (1H-15N HSQC of 15N-mSin3B PAH1 after adding the peptide: complex or single peptide): peptide added to aqueous solution of 15N-labeled mSin3B PAH1
T1 construct: Gly-Ser-His-Met (vector-derived N-terminal residues; general statement only, not tied to the sample used) (N); made in house
T1 sequence (Q62141 28-107): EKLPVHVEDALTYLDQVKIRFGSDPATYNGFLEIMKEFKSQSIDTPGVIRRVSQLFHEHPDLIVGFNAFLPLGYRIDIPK
Procedure: Interaction candidate regions of NRSF/REST (a.a. 43-83, 39-55, 38-57, 64-80 and 68-83) were individually added to an aqueous solution of ^15N-labeled mSin3B PAH1 for measuring ^1H—^15N HSQC to thereby determine a region necessary for the interaction. In order to examine binding ratios, NRSF/REST (a.a. 42-56) at varied concentrations was added to ^15N-labeled mSin3B PAH1 domain in phosphate buffer (pH 6.6), followed by observation of signal changes by ^1H—^15N HSQC. […] Further, in order to carry out quantitative determination of concentrations with UV, a residue having an aromatic ring (W) was also added to the peptide. In a similar manner, the interaction between ^15N-labeled mSin3B PAH1 domain and N—CoR (a.a. 1829-1847) was observed by ^1H-^15N HSQC. For all of the NMR measurement, Bruker Advance 700 was used.
^1H—^15N HSQC spectra were measured when NRSF/REST (a.a. 42-56) was added to 0.1 mM ^15N-labeled mSin3B PAH1 domain at a molar ratio of 1:0, 1:0.5, 1:1 or 1:2. As the concentration of NRSF/REST increased, signals from the single peptide mSin3B disappeared and new signals derived from the mSin3B in complex began to appear. […] No difference was recognized between mSin3B PAH1:NRSF/REST ratios of 1:1 and 1:2. Therefore, it was shown that mSin3B PAH1 domain and NRSF/REST form a complex with 1:1.
^1H—^15N HSQC spectra were measured when N—CoR was added to 0.1 mM ^15N-labeled mSin3B PAH1 domain at a molar ratio of 1:0, 1:0.2, 1:0.4, 1:0.6, 1:0.8, 1:1, 1:2 or 1:3. The positions of signals shifted in a N—CoR concentration dependent manner.

[3] = target: T2, PAH1 domain of mSin3B (a.a. 28-107) (mouse, UniProt O75182 35-114 (human entry)); assay: 1H-15N HSQC NMR, peptide added to 15N-labeled mSin3B PAH1 domain
T2 construct: Expressed in E. coli from pET-28a (NdeI-BamHI) and the His-tag was cut off with thrombin; Used 15N-labeled (or 13C/15N-labeled) in NMR; Stated molecular weight 9585; also called mSin3B PAH1 domain; mSin3B PAH1
T2 sequence: T1 sequence (Q62141 28-107)
Procedure: (§1) Interaction candidate regions of NRSF/REST (a.a. 43-83, 39-55, 38-57, 64-80 and 68-83) were individually added to an aqueous solution of ¹⁵N-labeled mSin3B PAH1 for measuring ¹H—¹⁵N HSQC to thereby determine a region necessary for the interaction. In order to examine binding ratios, NRSF/REST (a.a. 42-56) at varied concentrations was added to ¹⁵N-labeled mSin3B PAH1 domain in phosphate buffer (pH 6.6), followed by observation of signal changes by ¹H—¹⁵N HSQC. Since NRSF/REST (a.a. 42-56) is sparingly soluble, basic residues (KKKK) were added to its C-terminus to improve the solubility. Further, in order to carry out quantitative determination of concentrations with UV, a residue having an aromatic ring (W) was also added to the peptide. […] For all of the NMR measurement, Bruker Advance 700 was used.

[4] = target: T2, PAH1 domain of mSin3B (a.a. 28-107); assay: 1H-15N HSQC titration, 0.1 mM 15N-labeled mSin3B PAH1 at molar ratios 1:0 to 1:3
Procedure: as §1
¹H—¹⁵N HSQC spectra were measured when N—CoR was added to 0.1 mM ¹⁵N-labeled mSin3B PAH1 domain at a molar ratio of 1:0, 1:0.2, 1:0.4, 1:0.6, 1:0.8, 1:1, 1:2 or 1:3. The positions of signals shifted in a N—CoR concentration dependent manner. A rapid exchange process on the NMR timescale was shown.

binding result [3]: binds
B1: NRSF/REST (a.a. 39-55) (peptide)
peptide: AELAAPQLIMLANVALT
notes: Synthetic peptide, molecular weight 1739; also called NRSF/REST39-55

binding result [4]: binds
B2: N-CoR (a.a. 1829-1847) (peptide)
peptide: RYNTAADALAALVDAAASA
notes: Synthetic peptide, molecular weight 1835; also called co-repressor N-CoR

binding result [3]: binds
B3: NRSF/REST (a.a. 38-57) (peptide)
peptide: KAELAAPQLIMLANVALTGE
notes: Synthetic peptide, molecular weight 2053; Used for NMR structure analysis of the complex; also called NRSF/REST38-57

binding result [3]: no binding
B4: NRSF/REST (a.a. 64-80) (peptide)
peptide: DYLVGEERQMAELMPVG
notes: Synthetic peptide, molecular weight 1937

binding result [3]: binds
B5: NRSF/REST (a.a. 43-83) (peptide)
peptide: APQLIMLANVALTGEVNGSCCDYLVGEERQMAELMPVGDNN
notes: Recombinant, made as a GST fusion (pGEX-2T, BamHI-EcoRI) and GST was cut off with thrombin; Stated molecular weight 4511; also called NRSF/REST43-83

binding result [3]: no binding
B6: NRSF/REST (a.a. 68-83) (peptide)
peptide: GEERQMAELMPVGDNN
notes: Synthetic peptide, molecular weight 1790

binding result [3]: binds
B7: NRSF/REST (a.a. 42-56) to which KKKK and W are added to its C-terminus (peptide)
peptide: AAPQLIMLANVALTGKKKKW
notes: Synthetic peptide, molecular weight 2182; also called NRSF/REST42-56

Continued, molecule first:

Molecule: AAPQLIMLANVALTGKKKKW [NRSF/REST 42-56]
solubility [1]: sparingly soluble

Molecule: AELAAPQLIMLANVALT (listed as Homo sapiens) [NRSF/REST 39-55, synthetic peptide of NRSF/REST residues 39-55]
Spectrum (1H-15N HSQC of 15N-mSin3B PAH1 after adding the peptide: complex or single peptide) [2]: Complex

Molecule: APQLIMLANVALTGEVNGSCCDYLVGEERQMAELMPVGDNN (listed as Homo sapiens) [NRSF/REST 43-83, NRSF/REST residues 43-83, expressed as GST fusion in E. coli and cut with thrombin]
Spectrum (1H-15N HSQC of 15N-mSin3B PAH1 after adding the peptide: complex or single peptide) [2]: Complex

Molecule: DYLVGEERQMAELMPVG (listed as Homo sapiens) [NRSF/REST 64-80, synthetic peptide of NRSF/REST residues 64-80]
Spectrum (1H-15N HSQC of 15N-mSin3B PAH1 after adding the peptide: complex or single peptide) [2]: Single

Molecule: GEERQMAELMPVGDNN (listed as Homo sapiens) [NRSF/REST 68-83, synthetic peptide of NRSF/REST residues 68-83]
Spectrum (1H-15N HSQC of 15N-mSin3B PAH1 after adding the peptide: complex or single peptide) [2]: Single

Molecule: KAELAAPQLIMLANVALTGE (listed as Homo sapiens) [NRSF/REST 38-57, synthetic peptide of NRSF/REST residues 38-57]
Spectrum (1H-15N HSQC of 15N-mSin3B PAH1 after adding the peptide: complex or single peptide) [2]: Complex

Molecule: N—CoR (a.a. 1829-1847): synthetic peptide of residues 1829-1847 of transcriptional co-repressor N—CoR (RYNTAADALAALVDAAASA; listed as Homo sapiens)
interaction with the PAH1 domain relative to NRSF/REST ([2]; 1H-15N HSQC): interacts with the PAH1 domain, though more weakly than NRSF/REST | exchange process on the NMR timescale ([2]; titration into 0.1 mM 15N-labeled mSin3B PAH1 domain, 1H-15N HSQC): rapid exchange process
